B1: Merlin (Homo sapiens), P35240 (parent)
chain: MAGAIASRMSFSSLKRKQPKTFTVRIVTMDAEMEFNCEMKWKGKDLFDLVCRTLGLRETWFFGLQYTIKDTVAWLKMDKKVLDHDVSKEEPVTFHFLAKFYPENAEEELVQEITQHLFFLQVKKQILDEKIYCPPEASVLLASYAVQAKYGDYDPSVHKRGFLAQEELLPKRVINLYQMTPEMWEERITAWYAEHRGRARDEAEMEYLKIAQDLEMYGVNYFAIRNKKGTELLLGVDALGLHIYDPENRLTPKISFPWNEIRNISYSDKEFTIKPLDKKIDVFKFNSSKLRVNKLILQLCIGNHDLFMRRRKADSLEVQQMKAQAREEKARKQMERQRLAREKQMREEAERTRDELERRLLQMKEEATMANEALMRSEETADLLAEKAQITEEEAKLLAQKAAEAEQEMQRIKATAIRTEEEKRLMEQKVLEAEVLALKMAEESERRAKEADQLKQDLQEAREAERRAKQKLLEIATKPTYPPMNPIPAPLPPDIPSFNLIGDSLSFDFKDTDMKRLSMEIEKEKVEYMEKSKHLQEQLNELKTEIEALKLKERETALDILHNENSDRGGSSKHNTIKKLTLQSAKSRVAFFEEL
B2: Mitogen-activated protein kinase kinase kinase 11 (Homo sapiens), Q16584 (parent)
chain: MEPLKSLFLKSPLGSWNGSGSGGGGGGGGGRPEGSPKAAGYANPVWTALFDYEPSGQDELALRKGDRVEVLSRDAAISGDEGWWAGQVGGQVGIFPSNYVSRGGGPPPCEVASFQELRLEEVIGIGGFGKVYRGSWRGELVAVKAARQDPDEDISVTAESVRQEARLFAMLAHPNIIALKAVCLEEPNLCLVMEYAAGGPLSRALAGRRVPPHVLVNWAVQIARGMHYLHCEALVPVIHRDLKSNNILLLQPIESDDMEHKTLKITDFGLAREWHKTTQMSAAGTYAWMAPEVIKASTFSKGSDVWSFGVLLWELLTGEVPYRGIDCLAVAYGVAVNKLTLPIPSTCPEPFAQLMADCWAQDPHRRPDFASILQQLEALEAQVLREMPRDSFHSMQEGWKREIQGLFDELRAKEKELLSREEELTRAAREQRSQAEQLRRREHLLAQWELEVFERELTLLLQQVDRERPHVRRRRGTFKRSKLRARDGGERISMPLDFKHRITVQASPGLDRRRNVFEVGPGDSPTFPRFRAIQLEPAEPGQAWGRQSPRRLEDSSNGERRACWAWGPSSPKPGEAQNGRRRSRMDEATWYLDSDDSSPLGSPSTPPALNGNPPRPSLEPEEPKRPVPAERGSSSGTPKLIQRALLRGTALLASLGLGRDLQPPGGPGRERGESPTTPPTPTPAPCPTEPPPSPLICFSLKTPDSPPTPAPLLLDLGIPVGQRSAKSPRREEEPRGGTVSPPPGTSRSAPGTPGTPRSPPLGLISRPRPSPLRSRIDPWSFVSAGPRPSPLPSPQPAPRRAPWTLFPDSDPFWDSPPANPFQGGPQDCRAQTKDMGAQAPWVPEAGP

Variants of: B1
Details: with MAP3K11, Q16584

| Variant | effect of a mutation on the interaction |
| --- | --- |
| MAGAIASRMSFSSLKRKQPKTFTVRIVTMDAEMEFNCEMKWKGKDLFDLVCRTLGLRETWFFGLQYTIKDTVAWLKMDKKVLDHDVSKEEPVTFHFLAKFYPENAEEELVQEITQHLFFLQVKKQILDEKIYCPPEASVLLASYAVQAKYGDYDPSVHKRGFLAQEELLPKRVINLYQMTPEMWEERITAWYAEHRGRARDEAEMEYLKIAQDLEMYGVNYFAIRNKKGTELLLGVDALGLHIYDPENRLTPKISFPWNEIRNISYSDKEFTIKPLDKKIDVFKFNSSKLRVNKLILQLCIGNHDLFMRRRKADSLEVQQMKAQAREEKARKQMERQRLAREKQMREEAERTRDELERRLLQMKEEATMANEALMRSEETADLLAEKAQITEEEAKLLAQKAAEAEQEMQRIKATAIRTEEEKRLMEQKVLEAEVLALKMAEESERRAKEADQLKQDLQEAREAERRAKQKLLEIATKPTYPPMNPIPAPLPPDIPSFNLIGDSLSFDFKDTDMKRLDMEIEKEKVEYMEKSKHLQEQLNELKTEIEALKLKERETALDILHNENSDRGGSSKHNTIKKLTLQSAKSRVAFFEEL [S518D] | decreasing interaction |

Variants of: B2
Details: with merl_human NF2, P35240

| Variant | effect of a mutation on the interaction |
| --- | --- |
| K144R | disrupting interaction |

Source: IntAct's records for PubMed 20890305
